According to patent publication US20260116991A1 (HAINAN SIMCERE ZAIMING PHARMACEUTICAL, published 2026):
Changes are numbered by the printed parent chain.

B1: hAb006LH3L1d (antibody, human IgG1, V domains shown)
VH: EVQLVQSGAEVKKPGSSVKVSCKASGYTFTDYEIHWVRQAPGQGLEWMGAIDPKTGNTAYNQKFMGRVTLTADKSTSTAYMELSSLRSEDTAVYYCTRYFSFAYWGQGTLVTVSS
VL: DIVMTQTPLSLPVTPGEPASISCRSSQTFVHSNSNTYLQWYLQKPGQSPQLLIYKVSNRFSGVPDRFSGSGSGTDFTLKISRVEAEDVGVYYCFQGSHVPYTFGQGTKLEIK
notes: Humanized F3.38.7; VH H3 + VL L1d; expressed as human IgG1
B2: hAb003LH3L1a (antibody, human IgG1, V domains shown)
VH: B1 VH with T28R, I34M, A50T, K54E, N61T, G66D, Y99G, F100Y, A103T
VL: B1 VL with T28N, F29I, N33D, S34G, Y54F, Y101F
notes: Humanized F2.154.1; VH H3 + VL L1a; expressed as human IgG1
B3: hAb003LH3L1b (antibody, human IgG1, V domains shown)
VH: B1 VH with T28R, I34M, A50T, K54E, N61T, G66D, Y99G, F100Y, A103T
VL: B1 VL with T28N, F29I, S34R, Y54F, Y101F
notes: Humanized F2.154.1; VH H3 + VL L1b; expressed as human IgG1
B4: hAb005LH2L1 (antibody, human IgG1, V domains shown)
VH: EVQLVQSGAEVKKPGASVKVSCKASGYTFTDYEMHWVRQAPGQGLEWMGAIDPETGNTAYIQKFKGRVTLTTDKSTSTAYMELRSLRSDDTAVYYCTRFYSYSHWGQGTTVTVSS
VL: B1 VL with T28S, F29L, S34G, Q39H, F94S, G96N, S97T, Y101P, Q105G, L109V
notes: Humanized F3.54.12; VH H2 + VL L1; expressed as human IgG1
B5: hAb007LH1L1d (antibody, human IgG1, V domains shown)
VH: B1 VH with T30S, I34M, A50T, K54E, M65K, L70I, Y99P, F100Y, F102L, A103T
VL: B1 VL with T28S, N35D
notes: Humanized F3.81.19; VH H1 + VL L1d; expressed as human IgG1
B6: hAb005LH1L1 (antibody, human IgG1, V domains shown)
VH: B4 VH with L70M
VL: B1 VL with T28S, F29L, S34G, Q39H, F94S, G96N, S97T, Y101P, Q105G, L109V
notes: Humanized F3.54.12; VH H1 + VL L1; expressed as human IgG1
B7: hAb007LH3L1b (antibody, human IgG1, V domains shown)
VH: B1 VH with I34M, A50T, K54E, M65K, Y99P, F100Y, F102L, A103T
VL: B1 VL with T28S, S34R, N35D
notes: Humanized F3.81.19; VH H3 + VL L1b; expressed as human IgG1
B8: hAb007LH3L1 (antibody, human IgG1, V domains shown)
VH: B1 VH with I34M, A50T, K54E, M65K, Y99P, F100Y, F102L, A103T
VL: B1 VL with T28S, S34G, N35D
notes: Humanized F3.81.19; VH H3 + VL L1; expressed as human IgG1
B9: hAb007LH2L1b (antibody, human IgG1, V domains shown)
VH: B1 VH with I34M, A50T, K54E, M65K, L70I, Y99P, F100Y, F102L, A103T
VL: B1 VL with T28S, S34R, N35D
notes: Humanized F3.81.19; VH H2 + VL L1b; expressed as human IgG1
B10: hAb007LH1L1e (antibody, human IgG1, V domains shown)
VH: B1 VH with T30S, I34M, A50T, K54E, M65K, L70I, Y99P, F100Y, F102L, A103T
VL: B1 VL with T28S, S34V, N35D
notes: Humanized F3.81.19; VH H1 + VL L1e; expressed as human IgG1
B11: hAb007LH1L1 (antibody, human IgG1, V domains shown)
VH: B1 VH with T30S, I34M, A50T, K54E, M65K, L70I, Y99P, F100Y, F102L, A103T
VL: B1 VL with T28S, S34G, N35D
notes: Humanized F3.81.19; VH H1 + VL L1; expressed as human IgG1
B12: hAb007LH1L1c (antibody, human IgG1, V domains shown)
VH: B1 VH with T30S, I34M, A50T, K54E, M65K, L70I, Y99P, F100Y, F102L, A103T
VL: B1 VL with T28S, S34A, N35D
notes: Humanized F3.81.19; VH H1 + VL L1c; expressed as human IgG1
B13: hAb006LH3L1e (antibody, human IgG1, V domains shown)
VH: B1 VH
VL: B1 VL with S34V
notes: Humanized F3.38.7; VH H3 + VL L1e; expressed as human IgG1
B14: hAb007LH1L1b (antibody, human IgG1, V domains shown)
VH: B1 VH with T30S, I34M, A50T, K54E, M65K, L70I, Y99P, F100Y, F102L, A103T
VL: B1 VL with T28S, S34R, N35D
notes: Humanized F3.81.19; VH H1 + VL L1b; expressed as human IgG1

Biological target: T1, human GPC3 on CHO-K1-human GPC3 cells (CHOK1-hGPC3.2B5) (human, UniProt P51654 25-554)
T1 construct: whole, on cells
Assay: FACS, CHOK1-hGPC3.2B5 cells;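 further: flow cytometry of humanized antibodies binding to the cells over one hour in the cold, read as cell mean fluorescence intensity, with EC50 obtained by curve fitting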

Row | Binder | EC50 [nM] | Max MFI [MFI]
1 | B1 | 1.98 | 17600
2 | B2 | 6.02 | 2240
3 | B3 | 0.647 | 4980
4 | B4 | 0.736 | 4540
5 | B5 | 6.28 | 18200
6 | B6 | 0.563 | 4500
7 | B7 | 7.33 | 6240
8 | B8 | 6.98 | 6760
9 | B9 | 6.16 | 6040
10 | B10 | 10.4 | 15000
11 | B11 | 2.02 | 6440
12 | B12 | 4.61 | 18200
13 | B13 | 2.06 | 15800
14 | B14 | 6.47 | 6070

Biological target: biotinylated labeled human GPC3 protein (produced in-house) (human, UniProt P51654 25-559, limits assumed, biotinylated (Dojindo, Cat. No. LK03); sites not stated)
Assay: ELISA, biotinylated human GPC3 protein

Row | Binder | OD450 at 0.0004 nM [OD450] | OD450 at 0.002 nM [OD450] | OD450 at 0.011 nM [OD450] | OD450 at 0.056 nM [OD450] | OD450 at 0.28 nM [OD450] | OD450 at 1.39 nM [OD450] | OD450 at 6.94 nM [OD450] | OD450 at 34.72 nM [OD450] | OD450 at 0.0008 nM [OD450] | OD450 at 0.004 nM [OD450]
15 | B1 | 0.058 | 0.096 | 0.228 | 0.59 | 1.11 | 1.61 | 1.33 | 1.45 | – | –
16 | B2 | – | – | – | – | – | – | – | – | 0.086 | 0.128
17 | B3 | – | – | – | – | – | – | – | – | 0.157 | 0.381
18 | B4 | – | – | – | – | – | – | – | – | 0.083 | 0.185
19 | B5 | 0.059 | 0.057 | 0.101 | 0.16 | 0.503 | 1.1 | 1.34 | 1.31 | – | –
20 | B6 | – | – | – | – | – | – | – | – | 0.078 | 0.202
21 | B7 | – | – | – | – | – | – | – | – | 0.088 | 0.112
22 | B8 | – | – | – | – | – | – | – | – | 0.097 | 0.133
23 | B9 | – | – | – | – | – | – | – | – | 0.099 | 0.133
24 | B10 | 0.049 | 0.05 | 0.058 | 0.104 | 0.248 | 0.732 | 1.17 | 0.921 | – | –
25 | B11 | – | – | – | – | – | – | – | – | 0.109 | 0.17
26 | B12 | 0.052 | 0.064 | 0.098 | 0.25 | 0.718 | 1.09 | 1.45 | 1.29 | – | –
27 | B13 | 0.06 | 0.085 | 0.187 | 0.592 | 1.23 | 1.36 | 1.44 | 1.32 | – | –
28 | B14 | – | – | – | – | – | – | – | – | 0.099 | 0.137

Same assay, conditions: not given

Row | Binder | OD450 at 0.02 nM [OD450] | OD450 at 0.11 nM [OD450] | OD450 at 0.53 nM [OD450] | OD450 at 2.67 nM [OD450] | OD450 at 13.33 nM [OD450] | OD450 at 66.66 nM [OD450]
29 | B2 | 0.423 | 1.3 | 2.04 | 2.13 | 2.15 | 2.48
30 | B3 | 1.08 | 2 | 2.54 | 2.44 | 2.59 | 2.61
31 | B4 | 0.464 | 0.812 | 1.01 | 1.12 | 1.12 | 1.16
32 | B6 | 0.442 | 0.84 | 1.1 | 1.17 | 1.1 | 1.17
33 | B7 | 0.225 | 0.784 | 1.8 | 2.21 | 2.25 | 2.29
34 | B8 | 0.323 | 0.959 | 1.78 | 2.11 | 2.16 | 2.19
35 | B9 | 0.297 | 0.924 | 1.84 | 2.2 | 2.33 | 2.25
36 | B11 | 0.496 | 1.36 | 2.14 | 2.42 | 2.38 | 2.43
37 | B14 | 0.341 | 1.07 | 1.98 | 2.34 | 2.38 | 2.46
